{"source": "patent US20020197647A1", "about": "(ROCKEFELLER UNIVERSITY, published 2002)", "binders": {"B1": {"name": "GST-Stat3 (1-154) (other)", "chain": "MAQWNQLQQLDTRYLKQLHQLYSDTFPMELRQFLAPWIESQDWAYAASKESHATLVFHNLLGEIDQQYSRFLQESNVLYQHNLRRIKQFLQSRYLEKPMEIARIVARCLWEESRLLQTAATAAQQGGQANHPTAAVVTEKQQMLEQHLQDVRKR", "notes": "GST is placed N-terminal because of the pGEX vector; not shown: Glutathione S-transferase (GST) fusion partner of vector pGEX-5X-1 (Pharmacia)"}}, "target": "T1, c-Jun residues 1-104 (Rattus norvegicus (Rat), UniProt P17325 1-101, labeled with 35S by in vitro translation)", "T1 construct": "In vitro translated fragment; also called N-terminal region of c-Jun", "T1 sequence": "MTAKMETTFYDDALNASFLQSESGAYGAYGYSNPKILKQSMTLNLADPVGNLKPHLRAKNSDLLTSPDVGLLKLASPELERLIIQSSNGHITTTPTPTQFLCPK", "test": "GST pull-down of 35S-labeled in vitro translated c-Jun fragment"}
{"binder": "B1", "values": [{"measurement": "binding result", "result": "no binding"}]}
